According to PMC6875872 (The Journal of Physical Chemistry. B, 2019):

Target: the molecule itself
Assay: SEC + other: DLS + other: TEM

B1: cowpea chlorotic mottle virus (CCMV) capsid protein (natural protein, UniProt P03601 1-190, looked up)
chain: MSTVGTGKLTRAQRRAAARKNKRNTRVVQPVIVEPIASGQGKAIKAWTGYSVSKWTASCAAAEAKVTSAITISLPNELSSERNKQLKVGRVLLWLGLLPSVSGTVKSCVTETQTTAAASFQVALAVADNSKDVVAAMYPEAFKGITLEQLTADLTIYLYSSAALTEGDVIVHLEVEHVRPTFDDSFTPVY
With B1 the “stoichiometry N” value was 60.
